This note sets out measurements from US20250206841A1 (ADEPT THERAPEUTICS, published 2025).

T1: human Trop-2 expressed on cell surface (human, UniProt P09758 27-323)
T1 construct: whole, on cells; also called cell surface Trop-2
T1 sequence (looked up): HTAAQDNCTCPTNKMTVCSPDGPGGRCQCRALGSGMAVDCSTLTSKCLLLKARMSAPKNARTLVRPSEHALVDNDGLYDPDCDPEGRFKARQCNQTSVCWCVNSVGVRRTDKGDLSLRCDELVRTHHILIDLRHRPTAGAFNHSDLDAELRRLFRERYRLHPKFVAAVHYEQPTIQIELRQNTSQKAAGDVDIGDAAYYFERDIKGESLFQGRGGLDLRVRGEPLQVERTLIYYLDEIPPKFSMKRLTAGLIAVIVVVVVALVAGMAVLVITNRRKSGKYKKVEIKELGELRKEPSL

T2: cynomolgus Trop-2-His protein (cynomolgus, UniProt P09758 27-274 (human entry))
T2 construct: also called cynmolgus Trop-His; Kactus Cat #TRP-CM121; not shown: His tag
T2 chain: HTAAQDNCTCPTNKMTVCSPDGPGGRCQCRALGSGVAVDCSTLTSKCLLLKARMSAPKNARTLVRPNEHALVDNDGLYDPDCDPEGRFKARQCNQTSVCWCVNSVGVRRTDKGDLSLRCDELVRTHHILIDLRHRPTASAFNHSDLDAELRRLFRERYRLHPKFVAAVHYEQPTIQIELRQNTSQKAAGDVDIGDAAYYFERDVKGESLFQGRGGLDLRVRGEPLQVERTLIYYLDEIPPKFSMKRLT

T3: human Trop-2-His protein (human, UniProt P09758 27-274)
T3 construct: extracellular domain; Assay paragraphs say only 'Trop-2-His'; also called hTrop-2; Kactus Cat #TRP-HM121; not shown: His tag
T3 sequence (looked up): T2 chain with V36M, N67S, S139G, V204I

B1: 63H3 (antibody, V domains shown)
VH: QEQLKESGGGLVQPGGSLKLSCKASGFDFNSYGVSWVRQAPGKGLEWIAYIYPAFHNAYYANWVNGRFTISSDNAQNTVDLQLNSLTAADTATYFCARDAGGTDYNYNLWGPGTLVTVSS
VL: DVVMTQTPASVEVAVGGTVTLKCQASEDIESYSAWYQQKPGQPPNLLIYEASKLASGVSSRFSGSGYGTEFTLTISGVECADAATYYCQQALTIGNVDNPFGGGSEVVVR
notes: Rabbit-derived clone; LEM construct: VH + rabbit IgG CH1 + human IgG1 CH2-CH3
B2: 66A1 (antibody, V domains shown)
VH: B1 VH with S31N, A58T, N62S, D73H, V79L, D80Y, N106A
VL: DVVMTQTPASVEAAVGGTVSINCQASEDIESYLAWYQQKPGQPPKLLIYKASTLASGVSSRFKGSGSGKQFTLTISGVECADAATYYCQQVLTIGNVDNPFGGGSEVVVK
notes: as for B1
B3: 65D5 (antibody, V domains shown)
VH: B1 VH with S31A, A58T, N62T, D73H, V79L, D80Y, S85T, G102T, Y107F
VL: DIVMTQTPASVSEPVGGTVTIKCQASQSISSYLAWYQQKPGQPPKLLIYEATKLTSGVSSRFSGSGYGTEFTLTISGVECADAATYYCQQALTVGDVDNPFGGGSEVVVK
notes: as for B1
B4: 5D4 (antibody, V domains shown)
VH: QQLEESGGGLVKPEGSLTLTCKGSGFDFSGTYWMWWVRQAPGKGLEWIACIYVGSGSSTYYASWAKGRFTISSTSSTAVTLQATSLTAADTATYFCARGATNNVFMNYFNLWGPGTLVTVSS
VL: FEMTQTPSSVSEPVGGTVTIKCQASEDISSNLGWYQQKPGQPPKLLIYGASTLASGVPSRFKGSGSGTEFTLTISDLECADAATYYCQTSYYIDDGVNGFGGGTEVVVK
notes: as for B1

Positions count from the first letter of the chain named.

The target of one assay is T1, human Trop-2 expressed on cell surface. Description: flow cytometry, MCF-7 cells. A digest of the protocol: (§1)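 Cells at 10⁶/ml in DPBS/1% FBS were incubated on ice for 1 h with antibodies in 1:3 serial dilutions from 15 μg/mL. Detection used PE anti-human Fc (1:400, 30 min on ice) with 7-AAD viability staining, read by flow cytometry. EC₅₀ from binding curves; anti-HEL hIgG1 isotype control.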
Molecule B1 registered an EC50 of 0.6 nM.

In the case of B2, a half-maximal effect (EC50) was put at 0.6 nM.

B3 displayed an EC50 of 0.8 nM.

In turn, B4 displayed an EC50 of 1.2 nM.

The next assay has the same target. Description: cell-based or functional assay.
As to B1, the “Internalization %, MDA-MB-231, 0.25 µg/ml, 2 h” value is 40%; the “Internalization %, MDA-MB-231, 0.25 µg/ml, 4 h” value is 48%; the “Internalization %, MDA-MB-231, 0.5 µg/ml, 2 h” value was 39%; the “Internalization %, MDA-MB-231, 0.5 µg/ml, 4 h” value worked out at 45%. The “Internalization %, MDA-MB-231, 1 µg/ml, 2 h” value came to 38%; the “Internalization %, MDA-MB-231, 1 µg/ml, 4 h” value stood at 49%; the “Internalization %, MDA-MB-231, 2 µg/ml, 2 h” value stood at 37%; the “Internalization %, MDA-MB-231, 2 µg/ml, 4 h” value worked out at 39%.

Take B2: the “Internalization %, MDA-MB-231, 0.25 µg/ml, 2 h” value amounted to 45%; the “Internalization %, MDA-MB-231, 0.25 µg/ml, 4 h” value is 51%; the “Internalization %, MDA-MB-231, 0.5 µg/ml, 2 h” value was determined as 46%; the “Internalization %, MDA-MB-231, 0.5 µg/ml, 4 h” value was found to be 50%. In addition, the “Internalization %, MDA-MB-231, 1 µg/ml, 2 h” value amounted to 39%; the “Internalization %, MDA-MB-231, 1 µg/ml, 4 h” value stood at 49%; the “Internalization %, MDA-MB-231, 2 µg/ml, 2 h” value stood at 36%; the “Internalization %, MDA-MB-231, 2 µg/ml, 4 h” value came out at 43%.

As to B3, the “Internalization %, MDA-MB-231, 0.25 µg/ml, 2 h” value worked out at 34%; the “Internalization %, MDA-MB-231, 0.25 µg/ml, 4 h” value was 51%; the “Internalization %, MDA-MB-231, 0.5 µg/ml, 2 h” value worked out at 43%; the “Internalization %, MDA-MB-231, 0.5 µg/ml, 4 h” value amounted to 51%. For the same molecule, the “Internalization %, MDA-MB-231, 1 µg/ml, 2 h” value amounted to 37%; the “Internalization %, MDA-MB-231, 1 µg/ml, 4 h” value is 48%; the “Internalization %, MDA-MB-231, 2 µg/ml, 2 h” value is 31%; the “Internalization %, MDA-MB-231, 2 µg/ml, 4 h” value came out at 41%.

As for B4, the “Internalization %, MDA-MB-231, 0.25 µg/ml, 2 h” value was 56%; the “Internalization %, MDA-MB-231, 0.25 µg/ml, 4 h” value came to 65%; the “Internalization %, MDA-MB-231, 0.5 µg/ml, 2 h” value was 49%; the “Internalization %, MDA-MB-231, 0.5 µg/ml, 4 h” value stood at 66%. Besides, the “Internalization %, MDA-MB-231, 1 µg/ml, 2 h” value stood at 65%; the “Internalization %, MDA-MB-231, 1 µg/ml, 4 h” value was 51%; the “Internalization %, MDA-MB-231, 2 µg/ml, 2 h” value stood at 60%; the “Internalization %, MDA-MB-231, 2 µg/ml, 4 h” value turned out to be 66%.

A further assay deals with T2, cynomolgus Trop-2-His protein. Put plainly: BLI (Gator Prime), LEM supernatant Ab on HFC probe. The method in brief:
(§2)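 Antibodies from LEM transfection supernatants were diluted 1:1 in K buffer and captured on HFC probes. Association and dissociation of human or cynomolgus Trop-2-His were then followed by BLI, with blank reference subtraction and affinity from kinetic fitting. Sacituzumab govitecan at 1 μg/ml served as positive control.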
For B1, the affinity, expressed as Kd, was 0.218 nM; the dissociation rate constant (koff) is 0.00016 s⁻¹; the on-rate constant (kon) turned out to be 740000 M⁻¹ s⁻¹.

The molecule B2 returned a Kd of 0.367 nM, a koff of 0.00032 s⁻¹ and a kon of 869000 M⁻¹ s⁻¹.

With B3, binding was put at a Kd of 0.628 nM, the off-rate constant (koff) came to 0.00061 s⁻¹ and the kon was found to be 972000 M⁻¹ s⁻¹.

B4 registered a dissociation constant (Kd) of 0.256 nM, an off-rate (koff) of 0.0001 s⁻¹ and an on-rate constant (kon) of 577000 M⁻¹ s⁻¹.

The next assay addresses T3, human Trop-2-His protein. Description: BLI (Gator Prime), LEM supernatant Ab on HFC probe. A digest of the protocol: as §2
B1 had an equilibrium dissociation constant (Kd) of 0.22 nM, an off-rate constant (koff) of 0.00016 s⁻¹ and a kon of 704000 M⁻¹ s⁻¹.

B2 yielded a dissociation constant Kd of 0.426 nM, a koff of 0.00028 s⁻¹ and an on-rate (kon) of 656000 M⁻¹ s⁻¹.

The molecule B3 returned a dissociation constant Kd of 0.656 nM, a koff of 0.00046 s⁻¹ and a kon of 706000 M⁻¹ s⁻¹.

In turn, B4 displayed a Kd of 0.28 nM, a dissociation rate constant (koff) of 0.0001 s⁻¹ and a kon of 358000 M⁻¹ s⁻¹.

The target in the next assay is T1, human Trop-2 expressed on cell surface. Description: flow cytometry, MDA-MB-231-GFP cells. A digest of the protocol: as §1
As to B1, the EC50 worked out at 0.02 nM.

Molecule B2 had a 50% effective concentration (EC50) of 0.01 nM.

The molecule B3 returned an EC50 of 0.01 nM.

Molecule B4 gave an EC50 of 0.01 nM.

For a further assay, the target named is T3, human Trop-2-His protein. Description: BLI (Gator Plus), purified Ab on HFC probe. On the procedure: The affinity of the binding of the exemplary anti-Trop-2 antibodies of the present disclosure were determined. Assay was performed using Gator Plus according to the protocol recommended by Gator Bio Inc.. Briefly, human Trop-2-His (Kactus) was 1:4 fold serially diluted starting at 1 μg/ml. After three times of regeneration and neutralization of HFC probe, 1 μg/ml of antibody to be tested in Q buffer was immobilized onto HFC probe. […] The association and dissociation of human Trop-2-His antigen from antibody was measured on BLI machine Gator Plus. Affinity was calculated using Gator Bio analysis software. Blank control was used for reference subtraction. Sacituzumab govitecan was used as positive control.
For the molecule B1, the Kd was 0.03 nM, the koff came out at 2.5e-05 s⁻¹ and the kon was 766000 M⁻¹ s⁻¹.

For B2, the Kd is 0.25 nM, the off-rate (koff) was 0.000193 s⁻¹ and the kon is 788000 M⁻¹ s⁻¹.

As for B3, the dissociation constant (Kd) was found to be 1.1 nM, the off-rate (koff) was determined as 0.000898 s⁻¹ and the kon is 819000 M⁻¹ s⁻¹.

Regarding B4, the dissociation constant (Kd) is 0.03 nM, the off-rate constant (koff) is 1.3e-05 s⁻¹ and the kon came out at 522000 M⁻¹ s⁻¹.
